Here are results for four molecules from US20060105385, “Xenobiotic related induction of gene expression” (The University of Sydney, published 2006).

Common to all, as to details: label: 32P
Data set [1] has as its target T1, hPXR-RXR heterodimer (human pregnane X receptor / retinoid X receptor) (UniProt O75469;P19793 O75469:1-434,P19793:1-462). The data set is described as follows: EMSA; no shift apparent; described as functionally important by mutagenesis. As for the experimental part: (§1) The hPXR is an orphan nuclear receptor, belonging to the nuclear receptor gene superfamily. […] In order to evaluate the affinity of these putative response elements for HPXR-RXR heterodimers, electromobility shift assays (EMSA) were performed using with in-vitro transcribed/translated hPXR and RXR.

Data set [2] concerns the target T1, hPXR-RXR heterodimer (human pregnane X …). The data set can be described thus: EMSA; efficient gel shift. As for the experimental part: as §1
On the technique in general: In EMSA bound probe runs differently from free probe, usually more slowly.

For data set [3] the target is unchanged. The data set can be described thus: EMSA; no shift apparent; mutation of the site lowers reporter to 52% of wild type. The method, then:
as §1

T1 sequence (O75469 whole entry, chain 1 of 2): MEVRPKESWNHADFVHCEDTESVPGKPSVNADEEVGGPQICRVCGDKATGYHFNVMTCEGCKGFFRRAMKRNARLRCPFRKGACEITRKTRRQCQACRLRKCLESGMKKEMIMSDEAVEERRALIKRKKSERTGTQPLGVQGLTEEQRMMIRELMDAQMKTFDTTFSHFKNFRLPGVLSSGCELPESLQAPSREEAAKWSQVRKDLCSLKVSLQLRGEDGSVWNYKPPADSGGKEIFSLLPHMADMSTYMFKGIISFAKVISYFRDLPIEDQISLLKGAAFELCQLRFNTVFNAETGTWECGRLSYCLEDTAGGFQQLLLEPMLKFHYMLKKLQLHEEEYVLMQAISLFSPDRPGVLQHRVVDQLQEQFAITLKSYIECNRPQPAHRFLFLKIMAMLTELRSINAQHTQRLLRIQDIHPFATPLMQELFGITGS
T1 sequence (P19793 whole entry, chain 2 of 2): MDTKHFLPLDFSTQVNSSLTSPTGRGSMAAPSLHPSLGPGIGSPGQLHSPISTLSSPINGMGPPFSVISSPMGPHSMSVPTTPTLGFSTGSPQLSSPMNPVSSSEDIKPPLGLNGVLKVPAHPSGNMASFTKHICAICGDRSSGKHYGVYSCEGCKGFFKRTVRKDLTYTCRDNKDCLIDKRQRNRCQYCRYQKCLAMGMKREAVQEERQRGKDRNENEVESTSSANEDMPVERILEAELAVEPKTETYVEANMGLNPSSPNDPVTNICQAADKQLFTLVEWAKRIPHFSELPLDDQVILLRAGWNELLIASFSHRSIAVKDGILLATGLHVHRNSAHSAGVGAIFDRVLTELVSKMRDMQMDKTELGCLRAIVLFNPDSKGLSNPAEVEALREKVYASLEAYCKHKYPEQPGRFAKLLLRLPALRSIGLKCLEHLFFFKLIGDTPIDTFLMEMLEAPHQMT

B1: XREM-DR3-2 (dsDNA)
DNA 1: ATATATTGTTATTGAACTATC
DNA 2: GATAGTTCAATAACAATATAT
In the case of B1, in data set [1], the binding result was “no binding”.

B2: XREM-DR3-1 (dsDNA)
DNA 1: GAATGAACTTGCTGACCCTCT
DNA 2: AGAGGGTCAGCAAGTTCATTC
On to B2, for which the binding result in data set [2] is recorded as “binds”.

B3: XREM-DR6 (dsDNA)
DNA 1: AGGTGAATCACAAGCTGAACTTCT
DNA 2: AGAAGTTCAGCTTGTGATTCACCT
As for B3, the binding result in data set [3] is given as “no binding”.

B4: Prox-ER6 (dsDNA)
DNA 1: ATATGAACTCAAAGGAGGTCAGTG
DNA 2: CACTGACCTCCTTTGAGTTCATAT
Consider B4, for which the binding result in data set [2] is given as “binds”.
